# How the values were obtained:
# Test in all cases: SEC
# [1] = target: CckA ΔPAS-A ΔRD (Caulobacter crescentus)
# [2] = target: CckA (WT, N-terminal His-tag in place of its transmembrane helices) (Caulobacter crescentus) (UniProt Q9X688)
# [3] = target: CckA ΔPAS-A-B ΔRD (Caulobacter crescentus)
# [4] = target: CckA ΔPAS-A (Caulobacter crescentus)
substance,measurement,setting,value
CckA ΔPAS-A ΔRD (domain or fragment),stoichiometry N (CckA per complex),[1],2
"CckA (WT, N-terminal His-tag in place of its transmembrane helices) (from UniProt Q9X688 1-691) (enzyme)",stoichiometry N (CckA per complex),[2],4
CckA ΔPAS-A-B ΔRD (domain or fragment),stoichiometry N (CckA per complex),[3],2
CckA ΔPAS-A (domain or fragment),stoichiometry N (CckA per complex),[4],3.1
